Source: paper PMC6021487

Target: IL-33 (UniProt O95760)
Assay: co-immunoprecipitation with anti-HA, immunoblot
Settings: reference: wild type PTRF; sites Y158

binding against the reference: stronger
Substance: polymerase I and transcript release factor (PTRF, Cavin-1) (from UniProt O54724) PTRF Y158F
